# Where “and” joins values, the source holds several entries; their conditions need not be identical. Identical values can stand only once.
# How the values were obtained:
# IRS-1 (Homo sapiens) = IRS-1 (Homo sapiens) (UniProt P35568); settings: cited from earlier work
# [1] = target: ShcA (Y426) (Homo sapiens) (UniProt P29353); settings: cited from earlier work
# [2] = target: IRS-1 (Y896) (Homo sapiens) (UniProt P35568); settings: cited from earlier work
# [3] = target: p62DOK1 (Y398) phosphopeptide KEEGpYELPYNP, Rhodamine B-labelled; test: fluorescence polarisation; Rhodamine B-labelled peptide in solution with SH2 domain; Beacon 2000; as previously described [40]
# [4] = target: FGFR1 (Y463) phosphopeptide GVSEpYELPEDP, Rhodamine B-labelled; test: as above
# [5] = target: FGFR3 (Y760) phosphopeptide STDEpYLDLSAP, Rhodamine B-labelled; test: as above
# [6] = target: B3AT (Y921) (Homo sapiens) (UniProt P02730); settings: cited from earlier work
# [7] = target: PDGFRb (Y1021) (Homo sapiens) (UniProt P09619); settings: cited from earlier work
# [8] = target: p130Cas (Y664) (Homo sapiens) (UniProt P56945); settings: cited from earlier work
# [9] = target: CD150 (Y142) (Homo sapiens) (UniProt P20963); settings: cited from earlier work
# [10] = target: p130Cas (Y362) phosphopeptide AEDVpYDVPPPA, Rhodamine B-labelled; test: fluorescence polarisation; Rhodamine B-labelled peptide in solution with SH2 domain; Beacon 2000; as previously described [40]
# [11] = target: IRS-1 (Y896) phosphopeptide SPGEpYVNIEFG, Rhodamine B-labelled; test: as above
# [12] = target: p130Cas (Y362) (Homo sapiens) (UniProt P56945); settings: cited from earlier work
# [13] = target: IRS-1 (Y1012) (Homo sapiens) (UniProt P35568); settings: cited from earlier work
# [14] = target: IRS-1 (Y1179) phosphopeptide NGLNpYIDLDLV, Rhodamine B-labelled; test: fluorescence polarisation; Rhodamine B-labelled peptide in solution with SH2 domain; Beacon 2000; as previously described [40]
# [15] = target: IRS-1 (Y1179) (Homo sapiens) (UniProt P35568); settings: cited from earlier work
# Sequence of IRS-1 (Y1179) (Homo sapiens) (P35568 whole entry, looked up): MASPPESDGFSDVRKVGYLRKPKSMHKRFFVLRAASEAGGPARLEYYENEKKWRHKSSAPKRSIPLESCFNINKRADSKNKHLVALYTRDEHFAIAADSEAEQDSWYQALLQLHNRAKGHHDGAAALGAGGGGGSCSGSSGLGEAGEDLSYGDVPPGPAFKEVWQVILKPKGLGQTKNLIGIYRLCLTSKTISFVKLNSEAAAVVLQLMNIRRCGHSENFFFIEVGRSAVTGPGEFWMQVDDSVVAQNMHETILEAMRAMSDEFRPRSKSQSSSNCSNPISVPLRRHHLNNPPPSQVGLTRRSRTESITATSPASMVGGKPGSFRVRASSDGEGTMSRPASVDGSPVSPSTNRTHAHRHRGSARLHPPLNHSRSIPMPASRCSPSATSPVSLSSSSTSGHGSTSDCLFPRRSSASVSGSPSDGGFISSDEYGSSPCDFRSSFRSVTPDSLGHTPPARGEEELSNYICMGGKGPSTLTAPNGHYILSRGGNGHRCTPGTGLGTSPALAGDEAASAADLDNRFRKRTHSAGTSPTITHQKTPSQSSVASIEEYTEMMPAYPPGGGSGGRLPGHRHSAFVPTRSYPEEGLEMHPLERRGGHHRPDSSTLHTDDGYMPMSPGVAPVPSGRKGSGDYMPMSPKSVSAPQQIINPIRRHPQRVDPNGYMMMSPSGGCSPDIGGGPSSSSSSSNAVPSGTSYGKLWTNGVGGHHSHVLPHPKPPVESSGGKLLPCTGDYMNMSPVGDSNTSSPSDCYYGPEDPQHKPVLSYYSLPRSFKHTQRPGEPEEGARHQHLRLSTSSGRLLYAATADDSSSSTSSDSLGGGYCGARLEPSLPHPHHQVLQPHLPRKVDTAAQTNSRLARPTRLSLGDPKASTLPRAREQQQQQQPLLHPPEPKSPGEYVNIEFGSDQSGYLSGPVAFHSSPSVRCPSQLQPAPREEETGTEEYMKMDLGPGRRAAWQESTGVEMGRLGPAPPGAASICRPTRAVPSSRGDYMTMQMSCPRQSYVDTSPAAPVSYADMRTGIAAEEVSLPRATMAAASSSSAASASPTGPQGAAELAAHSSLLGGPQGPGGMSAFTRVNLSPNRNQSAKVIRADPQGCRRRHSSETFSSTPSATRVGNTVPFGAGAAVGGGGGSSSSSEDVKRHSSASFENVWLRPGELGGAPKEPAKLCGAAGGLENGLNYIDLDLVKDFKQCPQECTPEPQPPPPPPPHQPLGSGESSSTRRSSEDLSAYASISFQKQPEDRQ
# Sequence of Grb2 SH2 (P62993 57-155): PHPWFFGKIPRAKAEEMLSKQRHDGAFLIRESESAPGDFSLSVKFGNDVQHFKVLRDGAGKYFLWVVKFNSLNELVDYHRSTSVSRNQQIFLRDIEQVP
# Sequence of ShcA (Y426) (Homo sapiens) (P29353 whole entry, looked up): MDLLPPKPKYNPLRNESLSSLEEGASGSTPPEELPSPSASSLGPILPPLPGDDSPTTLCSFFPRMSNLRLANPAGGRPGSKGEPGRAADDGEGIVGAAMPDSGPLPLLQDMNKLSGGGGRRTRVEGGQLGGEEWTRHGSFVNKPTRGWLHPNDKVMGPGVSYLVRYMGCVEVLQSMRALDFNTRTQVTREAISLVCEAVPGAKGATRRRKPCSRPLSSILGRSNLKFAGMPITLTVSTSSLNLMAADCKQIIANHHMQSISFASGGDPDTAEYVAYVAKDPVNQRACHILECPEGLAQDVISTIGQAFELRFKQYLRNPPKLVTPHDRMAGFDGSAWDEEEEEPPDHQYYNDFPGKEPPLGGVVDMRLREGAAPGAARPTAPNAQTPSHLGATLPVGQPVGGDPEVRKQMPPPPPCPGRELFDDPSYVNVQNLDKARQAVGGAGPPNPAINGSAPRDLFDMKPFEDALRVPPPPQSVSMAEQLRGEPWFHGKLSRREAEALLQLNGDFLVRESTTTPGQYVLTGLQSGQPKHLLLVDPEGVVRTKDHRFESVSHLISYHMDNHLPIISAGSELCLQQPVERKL
# Sequence of IRS-1 (Y896) (Homo sapiens) (P35568 whole entry, looked up, the tested form may be a part): as the sequence (P35568 whole entry, looked up) above
# Sequence of IRS-1 (Y1012) (Homo sapiens) (P35568 whole entry, looked up, the tested form may be a part): as the sequence (P35568 whole entry, looked up) above
# Sequence of IRS-1 (Homo sapiens) (P35568 whole entry): as the sequence (P35568 whole entry, looked up) above
# Sequence of CD150 (Y142) (Homo sapiens) (P20963 whole entry, looked up, the tested form may be a part): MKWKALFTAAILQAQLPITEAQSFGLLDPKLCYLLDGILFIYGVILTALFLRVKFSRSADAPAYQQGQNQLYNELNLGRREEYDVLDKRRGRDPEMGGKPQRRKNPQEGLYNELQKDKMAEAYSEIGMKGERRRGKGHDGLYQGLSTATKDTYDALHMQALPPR
# Sequence of PDGFRb (Y1021) (Homo sapiens) (P09619 whole entry, looked up): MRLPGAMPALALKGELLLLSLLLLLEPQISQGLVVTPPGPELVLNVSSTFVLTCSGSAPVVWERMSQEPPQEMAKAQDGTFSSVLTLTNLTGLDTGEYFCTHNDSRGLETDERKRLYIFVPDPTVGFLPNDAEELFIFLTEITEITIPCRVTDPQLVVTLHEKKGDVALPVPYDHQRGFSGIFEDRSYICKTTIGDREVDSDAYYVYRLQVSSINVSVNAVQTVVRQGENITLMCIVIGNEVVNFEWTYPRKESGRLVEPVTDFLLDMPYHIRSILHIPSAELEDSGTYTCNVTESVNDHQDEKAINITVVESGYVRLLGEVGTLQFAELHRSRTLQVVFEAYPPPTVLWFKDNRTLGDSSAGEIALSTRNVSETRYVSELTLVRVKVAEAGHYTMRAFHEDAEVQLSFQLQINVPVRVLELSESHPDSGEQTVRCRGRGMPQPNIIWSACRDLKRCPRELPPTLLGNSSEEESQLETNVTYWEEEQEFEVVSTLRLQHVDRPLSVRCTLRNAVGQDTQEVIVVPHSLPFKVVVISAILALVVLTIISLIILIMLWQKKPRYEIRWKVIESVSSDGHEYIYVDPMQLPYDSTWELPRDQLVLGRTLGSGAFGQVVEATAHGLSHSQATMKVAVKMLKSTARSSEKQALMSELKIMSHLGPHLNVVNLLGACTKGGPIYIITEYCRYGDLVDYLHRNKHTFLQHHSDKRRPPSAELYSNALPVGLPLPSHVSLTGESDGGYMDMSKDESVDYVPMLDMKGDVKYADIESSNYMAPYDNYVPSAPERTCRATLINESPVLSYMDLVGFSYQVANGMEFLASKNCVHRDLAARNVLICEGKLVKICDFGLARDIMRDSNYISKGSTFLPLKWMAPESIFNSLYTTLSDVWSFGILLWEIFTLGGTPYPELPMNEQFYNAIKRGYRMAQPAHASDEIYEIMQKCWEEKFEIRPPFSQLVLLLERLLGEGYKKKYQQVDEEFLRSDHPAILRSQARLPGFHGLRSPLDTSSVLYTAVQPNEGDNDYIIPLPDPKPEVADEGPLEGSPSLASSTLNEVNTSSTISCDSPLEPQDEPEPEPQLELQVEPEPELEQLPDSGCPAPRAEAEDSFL
# Sequence of Crk SH2 (P46108 10-121): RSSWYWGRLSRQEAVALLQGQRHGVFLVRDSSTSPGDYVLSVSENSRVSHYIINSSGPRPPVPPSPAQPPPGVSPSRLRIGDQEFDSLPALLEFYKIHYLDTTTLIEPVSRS
# Sequence of B3AT (Y921) (Homo sapiens) (P02730 whole entry, looked up): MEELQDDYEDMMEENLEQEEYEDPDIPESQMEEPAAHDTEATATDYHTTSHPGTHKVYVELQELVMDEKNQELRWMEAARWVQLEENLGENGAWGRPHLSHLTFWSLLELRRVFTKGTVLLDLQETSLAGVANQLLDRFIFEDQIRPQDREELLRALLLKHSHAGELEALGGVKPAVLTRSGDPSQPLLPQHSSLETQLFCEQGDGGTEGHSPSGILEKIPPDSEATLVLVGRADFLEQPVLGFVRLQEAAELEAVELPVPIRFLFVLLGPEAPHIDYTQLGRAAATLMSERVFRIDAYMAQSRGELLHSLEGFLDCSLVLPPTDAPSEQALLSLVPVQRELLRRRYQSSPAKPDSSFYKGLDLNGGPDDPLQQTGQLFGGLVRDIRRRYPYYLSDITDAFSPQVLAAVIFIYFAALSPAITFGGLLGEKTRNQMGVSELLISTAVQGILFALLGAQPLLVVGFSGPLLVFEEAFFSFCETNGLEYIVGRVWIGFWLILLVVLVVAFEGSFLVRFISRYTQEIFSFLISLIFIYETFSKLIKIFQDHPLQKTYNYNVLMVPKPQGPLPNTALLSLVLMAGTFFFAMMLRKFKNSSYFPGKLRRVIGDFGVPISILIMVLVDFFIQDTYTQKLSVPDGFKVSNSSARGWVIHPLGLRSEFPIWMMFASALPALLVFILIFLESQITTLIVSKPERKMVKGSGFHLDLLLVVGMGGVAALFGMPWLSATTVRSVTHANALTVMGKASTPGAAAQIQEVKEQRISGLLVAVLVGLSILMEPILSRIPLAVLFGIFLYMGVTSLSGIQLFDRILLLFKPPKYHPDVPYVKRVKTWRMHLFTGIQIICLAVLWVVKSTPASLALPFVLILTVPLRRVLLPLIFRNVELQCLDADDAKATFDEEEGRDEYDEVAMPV
# Sequence of Shc1 SH2 (P29353 485-582): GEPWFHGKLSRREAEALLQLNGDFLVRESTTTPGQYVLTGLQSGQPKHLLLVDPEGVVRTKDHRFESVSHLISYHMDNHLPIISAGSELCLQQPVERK
# Sequence of Plcγ-C SH2 (C-terminal) (P19174 668-756): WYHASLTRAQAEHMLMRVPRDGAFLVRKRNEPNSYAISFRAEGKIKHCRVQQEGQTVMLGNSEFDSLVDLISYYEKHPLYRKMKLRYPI
substance,measurement,setting,value
Grb2 SH2 (from UniProt P62993),Kd,IRS-1 (Homo sapiens),35 nM
same,Kd,[1],23 nM and 53 nM
same,Kd,[2],35 nM
GST-Rasa1_C SH2 domain (domain or fragment),Kd,[3],1390 nM
same,Kd,[4],> 17000 nM
same,Kd,[5],> 17000 nM
Nck1 SH2 (from UniProt P16333),Kd,[6],60 nM
Plcγ-C SH2 (C-terminal) (from UniProt P19174),Kd,[7],4100 nM
Src SH2 (from UniProt P12931),Kd,[8],35 nM
Shc1 SH2 (from UniProt P29353),Kd,[9],50000 nM
GST-Rasa1_N SH2 domain (domain or fragment),Kd,[3],410 nM
GST-PI3K1_C SH2 domain (domain or fragment),Kd,[3],13000 nM
same,Kd,[5],2140 nM
GST-Ptpn11_N SH2 domain (domain or fragment),Kd,[3],> 50000 nM
same,Kd,[10],> 50000 nM
same,Kd,[11],2080 nM
same,Kd,[5],25000 nM
Crk SH2 (from UniProt P46108),Kd,[12],545 nM
Ptpn11_N SH2 (N-terminal) (from UniProt Q06124),Kd,[13],110000 nM
GST-PI3K1_N SH2 domain (domain or fragment),Kd,[14],15000 nM
same,Kd,[3],1850 nM
same,Kd,[11],2680 nM
Ptpn11 tandem SH2 tandem SH2 (from UniProt Q06124),Kd,[15],3 nM

# — paper PMC3514216, “SRC Homology 2 Domain Binding Sites in Insulin, IGF-1 and FGF receptor mediated signaling networks reveal an extensive potential interactome” (Cell Communication and Signaling : CCS, 2012)
